Assay results reported in the supplement of paper PMC10724198.
± gives the standard deviation of the averaged measurements.

Columns and labels:
Test in all cases: protein stability index of tFT-peptide fusion (C-terminal peptide) (PSI (0-1 scale)); higher = more stable (slower turnover)
Saccharomyces cerevisiae [1] = details: temperature: 30 C
Experimental: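 MPS profiling in S. cerevisiae of the yeast C-terminome library: the last 12 aa of each annotated ORF are fused to the C-terminus of a sfGFP-mCherry timer, after a GGGS linker. Cells are FACS-sorted into 8 mCherry/sfGFP bins and deep-sequenced. PSI runs from 0 (unstable) to 1 (stable); wild type and das1Δ backgrounds, two technical replicates each.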

Saccharomyces cerevisiae [2] = details: genetic background: wild type; temperature: 30 C
Saccharomyces cerevisiae [3] = test system: Saccharomyces cerevisiae
Experimental: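 MPS profiling in S. cerevisiae of the tFT-X12 degron library: putative degron peptides plus stable controls, 12 aa, fused to the C-terminus of a sfGFP-mCherry timer. Cells are FACS-sorted into 8 mCherry/sfGFP bins and deep-sequenced. PSI runs from 0 (unstable) to 1 (stable). Backgrounds are wild type, das1Δ and doa10Δ at 30 °C, and wild type, das1Δ, cdc34-1 and cdc53-1 at 37 °C; 2-3 technical replicates each.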

[4] = genetic background: das1 deletion
[5] = genetic background: cdc34-1, temperature: 37 C
[6] = genetic background: cdc53-1, temperature: 37 C
[7] = genetic background: das1 deletion, temperature: 30 C
[8] = genetic background: das1 deletion, temperature: 37 C
[9] = genetic background: doa10 deletion, temperature: 30 C
[10] = genetic background: wild type, temperature: 30 C
[11] = genetic background: wild type, temperature: 37 C

| Sequence | protein stability index (Saccharomyces cerevisiae [1]; [4]) | protein stability index (Saccharomyces cerevisiae [1]; genetic background: wild type) | further results |
| --- | --- | --- | --- |
| EFEENPNPTVEN [HSP42 C-terminal 12 aa] | 0.731 ± 0.033 | 0.702 ± 0.054 | – |
| TDLPKWAQLDNS [PUS6 C-terminal 12 aa] | 0.729 ± 0.028 | 0.702 ± 0.026 | – |
| ILKELSNLETLY [RPB4 C-terminal 12 aa] | 0.7182 ± 0.007 | 0.737 ± 0.051 | – |
| NYEDLATTQAAS [BRN1 C-terminal 12 aa] | 0.722 ± 0.011 | 0.68 ± 0.013 | – |
| THFFSIEWAGFG [SEN34 C-terminal 12 aa] | 0.7116 ± 0.0045 | 0.725 ± 0.041 | – |
| PSIQHDYTMEGW [ATG3 C-terminal 12 aa] | 0.72275 ± 0.00032 | 0.6562 ± 0.0032 | – |
| IFTSGSKSMKDL [ALG6 C-terminal 12 aa] | 0.73 ± 0.01 | 0.671 ± 0.0092 | – |
| IPTKKSQMDYFL [PPH3 C-terminal 12 aa] | 0.709 ± 0.029 | 0.753 ± 0.064 | – |
| YRVARKPSQPVM [MTO1 C-terminal 12 aa] | 0.685 ± 0.012 | 0.683 ± 0.027 | – |
| YILQKQIIEDVE [SFH5 C-terminal 12 aa] | 0.693 ± 0.0056 | 0.65 ± 0.043 | – |
| EGSGEFVGEMEI [MRS6 C-terminal 12 aa] | 0.708 ± 0.0019 | 0.714 ± 0.067 | – |
| IFVGETIFFFLF [YDR053W C-terminal 12 aa] | 0.625 ± 0.016 | 0.536 ± 0.018 | – |
| ASVIPGGCLGNL [ZPS1 C-terminal 12 aa] | 0.703 ± 0.018 | 0.685 ± 0.018 | – |
| SRVGRKVATLDQ [YAT2 C-terminal 12 aa] | 0.6994 ± 0.0069 | 0.694 ± 0.038 | – |
| VYVENPIRLFHH [ADE16 C-terminal 12 aa] | 0.712 ± 0.0083 | 0.7235 ± 0.0019 | – |
| QLLNDSPLEDKF [FBP26 C-terminal 12 aa] | 0.711 ± 0.026 | 0.7 ± 0.026 | – |
| AVYEELVHELFH [PSP1 C-terminal 12 aa] | 0.72 ± 0.021 | 0.675 ± 0.031 | – |
| QTAISMNDEDDA [GVP36 C-terminal 12 aa] | 0.712 ± 0.013 | 0.7006 ± 0.0018 | – |
| ISRKAGHPAPAF [YML100W-A C-terminal 12 aa] | 0.717 ± 0.0091 | 0.704 ± 0.03 | – |

| Sequence | protein stability index (Saccharomyces cerevisiae [1]; [4]) | protein stability index (Saccharomyces cerevisiae [1]; genetic background: wild type) | further results |
| --- | --- | --- | --- |
| ILNCVGSAKTSG [YBR298C-A C-terminal 12 aa] | 0.68417 ± 0.00062 | 0.666 ± 0.019 | – |
| EDEFLINSDDEM [CUE5 C-terminal 12 aa] | 0.726 ± 0.064 | 0.716 ± 0.037 | – |
| GESVDKVTKNEQ [YPR114W C-terminal 12 aa] | 0.691 ± 0.011 | 0.662 ± 0.014 | – |
| KKKRGFLGLFGR [SRP68 C-terminal 12 aa] | 0.706 ± 0.021 | 0.677 ± 0.0092 | – |
| SCGCGSSFDIEN [ISA2 C-terminal 12 aa] | 0.704 ± 0.015 | 0.632 ± 0.0093 | – |
| LSQFSNVRYLLQ [VPS70 C-terminal 12 aa] | 0.7367 ± 0.0022 | 0.545 ± 0.0054 | – |
| DLKTGNAVKGEL [SSZ1 C-terminal 12 aa] | 0.669 ± 0.019 | 0.6914 ± 0.0056 | – |
| DERLEQLKRLGI [HOM3 C-terminal 12 aa] | 0.7246 ± 0.0048 | 0.677 ± 0.019 | – |
| AMDYAISIENIV [RPN12 C-terminal 12 aa] | 0.665 ± 0.015 | 0.646 ± 0.015 | – |
| VMQELRKLKNAM [GLO4 C-terminal 12 aa] | 0.709 ± 0.018 | 0.64 ± 0.025 | – |
| YKQREYYTGVAW [ERG28 C-terminal 12 aa] | 0.70264 ± 0.0005 | 0.694 ± 0.02 | – |
| ALSCLGHSKIFI [YML094C-A C-terminal 12 aa] | 0.7082 ± 0.0041 | 0.706 ± 0.012 | – |
| EELEAEQIDVFS [PRP8 C-terminal 12 aa] | 0.689 ± 0.023 | 0.684 ± 0.02 | – |
| DEVTYLMFSSIM [SPG1 C-terminal 12 aa] | 0.713 ± 0.011 | 0.658 ± 0.026 | – |
| YIWKYYADSLFE [CSM2 C-terminal 12 aa] | 0.736 ± 0.013 | 0.685 ± 0.043 | – |
| LFGTCLVAMLLF [SPS22 C-terminal 12 aa] | 0.461 ± 0.023 | 0.449 ± 0.022 | – |
| STQHKSTTSFTQ [TGL4 C-terminal 12 aa] | 0.716 ± 0.035 | 0.655 ± 0.022 | – |
| TKRLRKNKCIIM [RHO4 C-terminal 12 aa] | 0.743 ± 0.0024 | 0.702 ± 0.024 | – |
| ACYVQLKKSGAF [COX8 C-terminal 12 aa] | 0.6966 ± 0.0035 | 0.669 ± 0.024 | – |

| Sequence | protein stability index (Saccharomyces cerevisiae [1]; [4]) | protein stability index (Saccharomyces cerevisiae [1]; genetic background: wild type) | further results |
| --- | --- | --- | --- |
| SEPTNDDLDATK [MRX10 C-terminal 12 aa] | 0.678 ± 0.033 | 0.675 ± 0.019 | – |
| DERRQPVSNLRM [YDL163W C-terminal 12 aa] | 0.712 ± 0.018 | 0.658 ± 0.01 | – |
| FSSEFSSDPTVN [YJL206C C-terminal 12 aa] | 0.69642 ± 0.00024 | 0.724 ± 0.034 | – |
| GGGYLTSLKLFI [YOR041C C-terminal 12 aa] | 0.68787 ± 0.00068 | 0.681 ± 0.031 | – |
| KVWVAGQQVYQI [GUD1 C-terminal 12 aa] | 0.697 ± 0.012 | 0.6639 ± 0.0028 | – |
| SESNDGESSDSD [RPA43 C-terminal 12 aa] | 0.656 ± 0.021 | 0.7176 ± 0.0024 | – |
| EEPQLDLLDDVL [MTW1 C-terminal 12 aa] | 0.706 ± 0.03 | 0.709 ± 0.084 | – |
| KPSSNNSINIKV [AHK1 C-terminal 12 aa] | 0.707 ± 0.033 | 0.743 ± 0.031 | – |
| QSLPPTLKVNRL [RPL38 C-terminal 12 aa] | 0.672 ± 0.012 | 0.65859 ± 0.00042 | – |
| SNNATHNCGNYF [YGR122W C-terminal 12 aa] | 0.712 ± 0.049 | 0.764 ± 0.01 | – |
| EWTKLYAKKKPE [UBC13 C-terminal 12 aa] | 0.6853 ± 0.0049 | 0.711 ± 0.01 | – |
| GFVISSCRLFIL | – | – | protein stability index (Saccharomyces cerevisiae [2]): 0.337 ± 0.044; protein stability index (Saccharomyces cerevisiae [3]; [5]): 0.581 ± 0.052; protein stability index (Saccharomyces cerevisiae [3]; [6]): 0.632 ± 0.0072; protein stability index (Saccharomyces cerevisiae [3]; [7]): 0.59 ± 0.022; protein stability index (Saccharomyces cerevisiae [3]; [8]): 0.669 ± 0.011; protein stability index (Saccharomyces cerevisiae [3]; [9]): 0.272 ± 0.021; protein stability index (Saccharomyces cerevisiae [3]; [10]): 0.264 ± 0.024; protein stability index (Saccharomyces cerevisiae [3]; [11]): 0.3989 ± 0.0031 |
| LIICRSFLCKVR | – | – | protein stability index (Saccharomyces cerevisiae [2]): 0.3 ± 0.01; protein stability index (Saccharomyces cerevisiae [3]; [5]): 0.236 ± 0.026; protein stability index (Saccharomyces cerevisiae [3]; [6]): 0.2557 ± 0.0016; protein stability index (Saccharomyces cerevisiae [3]; [7]): 0.193 ± 0.029; protein stability index (Saccharomyces cerevisiae [3]; [8]): 0.369 ± 0.0059; protein stability index (Saccharomyces cerevisiae [3]; [9]): 0.16 ± 0.0049; protein stability index (Saccharomyces cerevisiae [3]; [10]): 0.174 ± 0.023; protein stability index (Saccharomyces cerevisiae [3]; [11]): 0.317 ± 0.0052 |
| RKQLSCIMIWCK | – | – | protein stability index (Saccharomyces cerevisiae [2]): 0.298 ± 0.011; protein stability index (Saccharomyces cerevisiae [3]; [5]): 0.361 ± 0.013; protein stability index (Saccharomyces cerevisiae [3]; [6]): 0.405 ± 0.012; protein stability index (Saccharomyces cerevisiae [3]; [7]): 0.204 ± 0.027; protein stability index (Saccharomyces cerevisiae [3]; [8]): 0.431 ± 0.0082; protein stability index (Saccharomyces cerevisiae [3]; [9]): 0.188 ± 0.0052; protein stability index (Saccharomyces cerevisiae [3]; [10]): 0.204 ± 0.015; protein stability index (Saccharomyces cerevisiae [3]; [11]): 0.40377 ± 0.00039 |
| GGCYAGVAMRLI | – | – | protein stability index (Saccharomyces cerevisiae [2]): 0.76 ± 0.015; protein stability index (Saccharomyces cerevisiae [3]; [5]): 0.653 ± 0.02; protein stability index (Saccharomyces cerevisiae [3]; [6]): 0.729 ± 0.026; protein stability index (Saccharomyces cerevisiae [3]; [7]): 0.644 ± 0.021; protein stability index (Saccharomyces cerevisiae [3]; [8]): 0.714 ± 0.042; protein stability index (Saccharomyces cerevisiae [3]; [9]): 0.632 ± 0.014; protein stability index (Saccharomyces cerevisiae [3]; [10]): 0.62 ± 0.027; protein stability index (Saccharomyces cerevisiae [3]; [11]): 0.681 ± 0.025 |
| SVPRTRAPRLIS | – | – | protein stability index (Saccharomyces cerevisiae [2]): 0.384 ± 0.041; protein stability index (Saccharomyces cerevisiae [3]; [5]): 0.646 ± 0.027; protein stability index (Saccharomyces cerevisiae [3]; [6]): 0.73 ± 0.034; protein stability index (Saccharomyces cerevisiae [3]; [7]): 0.658 ± 0.025; protein stability index (Saccharomyces cerevisiae [3]; [8]): 0.71911 ± 0.00014; protein stability index (Saccharomyces cerevisiae [3]; [9]): 0.184 ± 0.0079; protein stability index (Saccharomyces cerevisiae [3]; [10]): 0.213 ± 0.024; protein stability index (Saccharomyces cerevisiae [3]; [11]): 0.4611 ± 0.00082 |
| NDSSWEVSLMVG | – | – | protein stability index (Saccharomyces cerevisiae [2]): 0.363 ± 0.076; protein stability index (Saccharomyces cerevisiae [3]; [5]): 0.693 ± 0.019; protein stability index (Saccharomyces cerevisiae [3]; [6]): 0.763 ± 0.021; protein stability index (Saccharomyces cerevisiae [3]; [7]): 0.616 ± 0.024; protein stability index (Saccharomyces cerevisiae [3]; [8]): 0.748 ± 0.0098; protein stability index (Saccharomyces cerevisiae [3]; [9]): 0.614 ± 0.041; protein stability index (Saccharomyces cerevisiae [3]; [10]): 0.62 ± 0.018; protein stability index (Saccharomyces cerevisiae [3]; [11]): 0.736 ± 0.028 |
| LWFRGGYLFFVV | – | – | protein stability index (Saccharomyces cerevisiae [2]): 0.265 ± 0.043; protein stability index (Saccharomyces cerevisiae [3]; [5]): 0.44378 ± 0.00022; protein stability index (Saccharomyces cerevisiae [3]; [6]): 0.444 ± 0.013; protein stability index (Saccharomyces cerevisiae [3]; [7]): 0.439 ± 0.025; protein stability index (Saccharomyces cerevisiae [3]; [8]): 0.499 ± 0.01; protein stability index (Saccharomyces cerevisiae [3]; [9]): 0.2 ± 0.013; protein stability index (Saccharomyces cerevisiae [3]; [10]): 0.185 ± 0.016; protein stability index (Saccharomyces cerevisiae [3]; [11]): 0.332 ± 0.0057 |
